From the supplement of paper PMC5998384

Columns and labels:
[1] = tested on: HeLa Kyoto; assay: solubility change mitosis vs G1/S (difference of NP-40 vs SDS log2 ratios) (log2 ratio difference); higher = more soluble in mitosis
[2] = tested on: HeLa Kyoto; assay: solubility in G1/S (NP-40 vs SDS abundance) (log2 ratio); higher = more soluble; details: cell cycle stage: G1/S
[3] = tested on: HeLa Kyoto; assay: melting temperature (median over replicates), in situ; higher = more thermally stable
[4] = tested on: HeLa Kyoto; assay: thermal stability score vs G1/S (z-score of summed log2 fold changes over temperatures); higher = more thermally stable than in G1/S
[5] = cell cycle stage: early G1 (4.5 h after nocodazole release)
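Wherever melting temperature (median over replicates), in situ is given: HeLa Kyoto cells synchronized by double thymidine or nocodazole block, proteins quantified by TMT10plex mass spectrometry, three independent biological replicates.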
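Wherever solubility change mitosis vs G1/S (difference of NP-40 vs SDS log2 ratios) is given: synchronized HeLa Kyoto cells (double thymidine block for G1/S, nocodazole release for mitosis), protein amounts in NP-40 versus SDS lysates quantified by mass spectrometry, three biological replicates.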
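Wherever solubility in G1/S (NP-40 vs SDS abundance) is given: HeLa Kyoto cells arrested at G1/S by double thymidine block, proteins quantified by TMT10plex mass spectrometry in mild NP-40 versus SDS extracts, three biological replicates.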
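Wherever thermal stability score vs G1/S (z-score of summed log2 fold changes over temperatures) is given: synchronized HeLa Kyoto cells, proteins quantified by TMT10plex mass spectrometry, three biological replicates, mitosis taken 0.5 h after nocodazole release, G1/S directly after double thymidine block.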

| Substance | solubility change mitosis (log2) [1] | solubility in G1/S (log2) [2] | melting temperature ([3]; cell cycle stage: G1/S) [°C] | melting temperature ([3]; cell cycle stage: mitosis) [°C] | thermal stability score [4, 5] | thermal stability score ([4]; cell cycle stage: mitosis) |
| --- | --- | --- | --- | --- | --- | --- |
| MRLGSGTFATCCVAIEVLGIAVFLRGFFPAPVRSSARAEHGAEPPAPEPSAGASSNWTTLPPPLFSKVVIVLIDALRDDFVFGSKGVKFMPYTTYLVEKGASHSFVAEAKPPTVTMPRIKALMTGSLPGFVDVIRNLNSPALLEDSVIRQAKAAGKRIVFYGDETWVKLFPKHFVEYDGTTSFFVSDYTEVDNNVTRHLDKVLKRGDWDILILHYLGLDHIGHISGPNSPLIGQKLSEMDSVLMKIHTSLQSKERETPLPNLLVLCGDHGMSETGSHGASSTEEVNTPLILISSAFERKPGDIRHPKHVQQTDVAATLAIALGLPIPKDSVGSLLFPVVEGRPMREQLRFLHLNTVQLSKLLQENVPSYEKDPGFEQFKMSERLHGNWIRLYLEEKHSEVLFNLGSKVLRQYLDALKTLSLSLSAQVAQYDIYSMMVGTVVVLEVLTLLLLSVPQALRRKAELEVPLSSPGFSLLFYLVILVLSAVHVIVCTSAESSCYFCGLSWLAAGGVMVLASALLCVIVSVLTNVLVGGNTPRKNPMHPSSRWSELDLLILLGTAGHVLSLGASSFVEEEHQTWYFLVNTLCLALSQETYRNYFLGDDGEPPCGLCVEQGHDGATAAWQDGPGCDVLERDKGHGSPSTSEVLRGREKWMVLASPWLILACCRLLRSLNQTGVQWAHRPDLGHWLTSSDHKAELSVLAALSLLVVFVLVQRGCSPVSKAALALGLLGVYCYRAAIGSVRFPWRPDSKDISKGIIEARFVYVFVLGILFTGTKDLLKSQVIAADFKLKTVGLWEIYSGLVLLAALLFRPHNLPVLAFSLLIQTLMTKFIWKPLRHDAAEITVMHYWFGQAFFYFQGNSNNIATVDISAGFVGLDTYVEIPAVLLTAFGTYAGPVLWASHLVHFLSSETRSGSALSHACFCYALICSIPVFTYIVLVTSLRYHLFIWSVFSPKLLYEGMHLLITAAVCVFFTAMDQTRLTQS [PIGG] | 0.00219 | -0.239 | 54.1 | 53.8 | 0.623 | -0.407 |
| MEGESTSAVLSGFVLGALAFQHLNTDSDTEGFLLGEVKGEAKNSITDSQMDDVEVVYTIDIQKYIPCYQLFSFYNSSGEVNEQALKKILSNVKKNVVGWYKFRRHSDQIMTFRERLLHKNLQEHFSNQDLVFLLLTPSIITESCSTHRLEHSLYKPQKGLFHRVPLVVANLGMSEQLGYKTVSGSCMSTGFSRAVQTHSSKFFEEDGSLKEVHKINEMYASLQEELKSICKKVEDSEQAVDKLVKDVNRLKREIEKRRGAQIQAAREKNIQKDPQENIFLCQALRTFFPNSEFLHSCVMSLKNRHVSKSSCNYNHHLDVVDNLTLMVEHTDIPEASPASTPQIIKHKALDLDDRWQFKRSRLLDTQDKRSKADTGSSNQDKASKMSSPETDEEIEKMKGFGEYSRSPTF [FAM175A] | -0.057 | 0.0226 |  | 57.3 | -2.44 | -2.5 |
| MERPPGLRPGAGGPWEMRERLGTGGFGNVCLYQHRELDLKIAIKSCRLELSTKNRERWCHEIQIMKKLNHANVVKACDVPEELNILIHDVPLLAMEYCSGGDLRKLLNKPENCCGLKESQILSLLSDIGSGIRYLHENKIIHRDLKPENIVLQDVGGKIIHKIIDLGYAKDVDQGSLCTSFVGTLQYLAPELFENKPYTATVDYWSFGTMVFECIAGYRPFLHHLQPFTWHEKIKKKDPKCIFACEEMSGEVRFSSHLPQPNSLCSLVVEPMENWLQLMLNWDPQQRGGPVDLTLKQPRCFVLMDHILNLKIVHILNMTSAKIISFLLPPDESLHSLQSRIERETGINTGSQELLSETGISLDPRKPASQCVLDGVRGCDSYMVYLFDKSKTVYEGPFASRSLSDCVNYIVQDSKIQLPIIQLRKVWAEAVHYVSGLKEDYSRLFQGQRAAMLSLLRYNANLTKMKNTLISASQQLKAKLEFFHKSIQLDLERYSEQMTYGISSEKMLKAWKEMEEKAIHYAEVGVIGYLEDQIMSLHAEIMELQKSPYGRRQGDLMESLEQRAIDLYKQLKHRPSDHSYSDSTEMVKIIVHTVQSQDRVLKELFGHLSKLLGCKQKIIDLLPKVEVALSNIKEADNTVMFMQGKRQKEIWHLLKIACTQSSARSLVGSSLEGAVTPQTSAWLPPTSAEHDHSLSCVVTPQDGETSAQMIEENLNCLGHLSTIIHEANEEQGNSMMNLDWSWLTE [CHUK] | -0.139 | 0.0423 | 48.7 | 49.1 | 0.418 | 1.15 |
| MQRLQVVLGHLRGPADSGWMPQAAPCLSGAPQASAADVVVVHGRRTAICRAGRGGFKDTTPDELLSAVMTAVLKDVNLRPEQLGDICVGNVLQPGAGAIMARIAQFLSDIPETVPLSTVNRQCSSGLQAVASIAGGIRNGSYDIGMACGVESMSLADRGNPGNITSRLMEKEKARDCLIPMGITSENVAERFGISREKQDTFALASQQKAARAQSKGCFQAEIVPVTTTVHDDKGTKRSITVTQDEGIRPSTTMEGLAKLKPAFKKDGSTTAGNSSQVSDGAAAILLARRSKAEELGLPILGVLRSYAVVGVPPDIMGIGPAYAIPVALQKAGLTVSDVDIFEINEAFASQAAYCVEKLRLPPEKVNPLGGAVALGHPLGCTGARQVITLLNELKRRGKRAYGVVSMCIGTGMGAAAVFEYPGN [ACAA1] | -0.102 | 0.126 | 55.1 | 55.3 | 0.354 | -0.509 |
| MAAYSYRPGPGAGPGPAAGAALPDQSFLWNVFQRVDKDRSGVISDTELQQALSNGTWTPFNPVTVRSIISMFDRENKAGVNFSEFTGVWKYITDWQNVFRTYDRDNSGMIDKNELKQALSGFGYRLSDQFHDILIRKFDRQGRGQIAFDDFIQGCIVLQRLTDIFRRYDTDQDGWIQVSYEQYLSMVFSIV [PDCD6] | 0.26 | 0.15 | 49.3 | 50.5 | 2.71 | 2.81 |
| KIF14 | -0.0203 | -0.297 | 49.1 | 45.5 | -0.945 | -2.77 |
| MSIMSYNGGAVMAMKGKNCVAIAADRRFGIQAQMVTTDFQKIFPMGDRLYIGLAGLATDVQTVAQRLKFRLNLYELKEGRQIKPYTLMSMVANLLYEKRFGPYYTEPVIAGLDPKTFKPFICSLDLIGCPMVTDDFVVSGTCAEQMYGMCESLWEPNMDPDHLFETISQAMLNAVDRDAVSGMGVIVHIIEKDKITTRTLKARMD [PSMB3] | -0.241 | 0.275 | 59.9 | 62.6 | -1.89 | -1.25 |
